Measured values reported in US20190374608A1 (BOARD OF TRUSTEES OF THE UNIVERSITY OF ILLINOIS, published 2019).
Where no end group is shown, it is not given here. (CH2CH2O)27 = 27 units of polyethylene glycol linked to the C-terminal Asp, ending in NH2

T1: human CCR3 in membrane preparations, 13C-reductively methylated (CCR3-K-di13CH3) (human, UniProt P51677 1-355, lysines reductively methylated with 13C (K-di13CH3))
T1 construct: also called CCR3 membrane preps; C-C chemokine receptor 3
T1 sequence (looked up): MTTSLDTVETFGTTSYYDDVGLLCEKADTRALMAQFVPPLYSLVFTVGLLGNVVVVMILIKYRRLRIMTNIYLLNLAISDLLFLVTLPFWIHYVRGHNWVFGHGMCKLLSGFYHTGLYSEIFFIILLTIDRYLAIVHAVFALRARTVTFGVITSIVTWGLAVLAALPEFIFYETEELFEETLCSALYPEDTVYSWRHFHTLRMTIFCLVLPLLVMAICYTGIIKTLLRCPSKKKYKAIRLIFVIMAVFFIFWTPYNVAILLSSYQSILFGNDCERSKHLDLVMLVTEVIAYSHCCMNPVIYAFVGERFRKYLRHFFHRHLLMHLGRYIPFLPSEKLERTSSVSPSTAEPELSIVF

T2: human CCR3 on cells (AML14.3D10-CCR3 cells, blood eosinophils, 4DE4-CCR3 cells) (human, UniProt P51677 1-355)
T2 sequence (looked up): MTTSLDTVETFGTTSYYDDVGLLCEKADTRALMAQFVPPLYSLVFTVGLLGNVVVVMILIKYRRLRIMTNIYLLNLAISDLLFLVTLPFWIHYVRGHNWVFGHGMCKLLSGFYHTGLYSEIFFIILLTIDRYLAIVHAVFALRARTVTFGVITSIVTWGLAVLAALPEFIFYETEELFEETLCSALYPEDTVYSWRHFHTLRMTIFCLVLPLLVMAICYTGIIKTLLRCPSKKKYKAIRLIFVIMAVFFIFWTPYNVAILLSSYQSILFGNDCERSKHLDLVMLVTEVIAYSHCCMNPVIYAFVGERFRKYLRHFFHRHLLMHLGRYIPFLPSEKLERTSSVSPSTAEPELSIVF


What was measured:
[1] = biological target: T1, human CCR3 in membrane preparations, …; test: NMR, 13C HSQC of 13C-reductively methylated CCR3 membrane preps (0.25 mg/ml) with 1 µM CCL11
Method: FIG. 6A to FIG. 6E show NMR evaluation of the binding of R3-2-1 and CCL11/eotaxin-1 to CCR3 membrane preparations. ¹³C HSQC spectra of ¹³C-reductively methylated CCR3 membrane preps (0.25 mg/ml) were recorded with 1 μM CCL11 and 10 μM R321. FIG. 6A, reductively methylated CCR3 (CCR3-K-di¹³CH3) (gray) and reductively methylated CCR3 with CCL11 (black); FIG. 6B, reductively methylated CCR3 (CCR3-K-di¹³CH3) (gray) and reductively methylated CCR3 with R321 (black); FIG. 6C, reductively methylated CCR3 (CCR3-K-di¹³CH3) (gray) and reductively methylated CCR3 with CCL11 and R321 (black); FIG. 6D, reductively methylated CCR3 with CCL11 (gray) and reductively methylated CCR3 with CCL11 and R321 (black); and FIG. 6E, reductively methylated CCR3 with R321 (gray) and reductively methylated CCR3 with CCL11 and R321 (black) show chemical shift changes indicative of binding. Black arrows indicate the differences in chemical shifts.

[2] = biological target: T2, human CCR3 on cells (AML14.3D10-CCR3 …); test: cell-based or functional assay

| binding result [1] | IC50 of inhibition of CCL11/Eotaxin-1 (12 nM)-induced chemotaxis, AML14.3D10-CCR3 cells [2] [nM] | IC50 of inhibition of CCL11/Eotaxin-1 (12 nM)-induced chemotaxis, blood eosinophils [2] [nM] | IC50 of inhibition of CCL24/Eotaxin-2 (20 nM)-induced chemotaxis, AML14.3D10-CCR3 cells [2] [nM] | IC50 of inhibition of CCL24/Eotaxin-2 (20 nM)-induced chemotaxis, blood eosinophils [2] [nM] | IC50 of inhibition of CCL26/Eotaxin-3 (100 nM)-induced chemotaxis, AML14.3D10-CCR3 cells [2] [nM] | IC50 of inhibition of CCL26/Eotaxin-3 (100 nM)-induced chemotaxis, blood eosinophils [2] [nM] | Binder |
| --- | --- | --- | --- | --- | --- | --- | --- |
| binds |  |  |  |  |  |  | recombinant human CCL11 (ligand, also called eotaxin; eotaxin-1) not shown |
|  | 210 | 110 | 140 | 80 | 100 | 160 | LLFLVTLPFWIHYVRGHNWVFGHDDD-{(CH2CH2O)27-NH2} [R3-2-1 peptide (CCR3 second transmembrane helix peptide analog, PEG27, C-terminal amide)] |
